Numbering of substitutions follows the chain as printed. Numbers in names are those of the source.

What all share (assay type): biochemical, B. amyloliquefaciens
Substrate in data set [1]: CSCC[C@H](NC(=O)[C@@H]1CCCN1C(=O)[C@H](C)NC(=O)[C@H](C)NC(=O)CCC(=O)O)C(=O)Nc1ccc([N+](=O)[O-])cc1
Briefly: Kinetics of p-nitroanilide substrate hydrolysis, S156. The conditions noted are these: other: Table XIV, 156 Ser / 166 Gly; value in parentheses; synthetic substrate with label as P-1 amino acid; 37.0 °C. An excerpt: (§1) Wild-type subtilisin was purified from B. subtilis culture supernatants expressing the B. amyloliquefaciens subtilisin gene (Wells, J.A., et al. (1983) Nucleic Acids Res. 11, 7911-7925) as previously described (Estell, D.A., et al. (1985) J. Biol. Chem. 260, 6518-6521). Details of the synthesis of tetrapeptide substrates having the form succinyl-L-AlaL-AlaL-ProL-[X]-p-nitroanilide (where X is the P1 amino acid) are described by DelMar, E.G., et al. (1979) Anal. Biochem. 99, 316-320. Kinetic parameters, Km(M) and kcat-(s-^1) were measured using a modified progress curve analysis (Estell, D.A., et al. (1985) J. Biol. Chem. 260, 6518-6521). Briefly, plots of rate versus product concentration were fit to the differential form of the rate equation using a non-linear regression algorithm. Errors in kcat and Km for all values reported are less than five percent. The various substrates in Table VIII are ranged in order of decreasing hydrophobicity. Nozaki, Y. (1971), J. Biol. Chem. 246, 2211-2217; Tanford C. (1978) Science 200, 1012).
(§2) Construction of position 156 single mutants were prepared by ligation of the three fragments (1-3) indicated at the bottom of Figure 21. Fragment 3, containing the carboxy-terminal portion of the subtilisin gene including the wild type position 166 codon, was isolated as a 610 bp Sacl-BamHI fragment. Fragment 1 contained the vector sequences, as well as the amino-terminal sequences of the subtilisin gene through codon 151. To produce fragment 1, a unique Kpnl site at codon 152 was introduced into the wild type subtilisin sequence from pS4.5. Site-directed mutagenesis in M13 employed a primer having the sequence 5'-TA-GTC-GTT-GCG-GTA-CCC-GGT-AAC-GAA-3' to produce the mutation. Enrichment for the mutant sequence was accomplished by restriction with Kpnl, purification and self ligation. The mutant sequence containing the Kpnl site was confirmed by direct plasmid sequencing to give pV152. pV152 (-1 µg) was digested with Kpnl and treated with 2 units of DNA polymerase I large fragment (Klenow fragment from Boeringer-Mannheim) plus 50 µM deoxynucleotide triphosphates at 37°C for 30 min. This created a blunt end that terminated with codon 151. The DNA was extracted with 1:1 volumes phenol and CHC13 and DNA in the aqueous phase was precipitated by addition of 0.1 volumes 5M ammonium acetate and two volumes ethanol. After centrifugation and washing the DNA pellet with 70% ethanol, the DNA was lyophilized. DNA was digested with BamHl and the 4.6kb piece (fragment 1) was purified by acrylamide gel electrophoresis followed by electroelution. […] The top strand was synthesized to contain a glutamine codon, and the complementary bottom strand coded for serine at 156. Ligation of heterophosphorylated cassettes leads to a large and favorable bias for the phosphorylated over the non-phosphorylated oligonucleotide sequence in the final segrated plasmid product. Therefore, to obtain Q156 the top strand was phosphorylated, and annealed to the non-phosphorylated bottom strand prior to ligation. Similarly, to obtain S156 the bottom strand was phosphorylated and annealed to the non-phosphorylated top strand. Mutant sequences were isolated after ligation and transformation, and were confirmed by restriction analysis and DNA sequencing as before. To express variant subtilisins, plasmids were transformed into a subtilisin-neutral protease deletion mutant of B. subtilis, BG2036, as previously described. Cultures were fermented in shake flasks for 24 h at 37 ° C in LB media containing […] chloramphenicol and subtilisin was purified from culture supernatants as described. Purity of subtilisin was greater than 95% as judged by SDS PAGE.
(§3) These mutant plasmids designated pS156 and pQ156 and mutant subtilisins designated S156 and Q156 were analyzed with the above synthetic substrates where P-1 comprised the amino acids Glu, Gln, Met and Lys. The results of this analyses are presented in Example 9. […]

Substrate in data set [2]: C[C@H](NC(=O)CCC(=O)O)C(=O)N[C@@H](C)C(=O)N1CCC[C@H]1C(=O)N[C@@H](CCC(=O)O)C(=O)Nc1ccc([N+](=O)[O-])cc1
The data set is described as above. The conditions noted are these: 37.0 °C.
From the text: as §1, §2, §3

Substrate in data set [3]: C[C@H](NC(=O)CCC(=O)O)C(=O)N[C@@H](C)C(=O)N1CCC[C@H]1C(=O)N[C@@H](CCC(N)=O)C(=O)Nc1ccc([N+](=O)[O-])cc1
The description is as above. The conditions noted are these: other: Table XIV, 156 Ser / 166 Gly; value in parentheses; synthetic substrate with label as P-1 amino acid; 37.0 °C.
From the text: as §1, §2, §3

Substrate in data set [4]: C[C@H](NC(=O)CCC(=O)O)C(=O)N[C@@H](C)C(=O)N1CCC[C@H]1C(=O)N[C@@H](CCCCN)C(=O)Nc1ccc([N+](=O)[O-])cc1
The data set is described as above. To be noted: other: Table XIV, 156 Ser / 166 Gly; value in parentheses; synthetic substrate with label as P-1 amino acid; 37.0 °C.
From the text: as §1, §2, §3

Substrate in data set [5]: C[C@H](NC(=O)CCC(=O)O)C(=O)N[C@@H](C)C(=O)N1CCC[C@H]1C(=O)N[C@@H](Cc1ccccc1)C(=O)Nc1ccc([N+](=O)[O-])cc1
Described as above. To be noted: other: Table XIII, S156; synthetic substrate with label as P-1 residue; 37.0 °C.
From the text: as §1, §2, §3

Substrate in data set [6]: CSCC[C@H](NC(=O)[C@@H]1CCCN1C(=O)[C@H](C)NC(=O)[C@H](C)NC(=O)CCC(=O)O)C(=O)Nc1ccc([N+](=O)[O-])cc1
Briefly: Kinetics of p-nitroanilide substrate hydrolysis, R166. The conditions noted are these: other: Table XIV, 156 Glu / 166 Arg; value in parentheses; synthetic substrate with label as P-1 amino acid.
From the text: as §1
(§4) The construction of subtilisin mutants containing the substitution of the ionic amino acids Asp, Asn, Gln, Lys and Ang are disclosed in EPO Publication No. 0130756. The present example describes the construction of the mutant subtilisin containing Glu at position 166 (E166) and presents substrate specificity data on these mutants. Further data on position 166 and 156 single and double mutants is presented infra.
(§5) Each of these mutants was analyzed with the tetrapeptide substrates, succinyl-L-AlaL-AlaProL-X-p-nitroanilide, where X was Phe, Ala and Glu.

Substrate in data set [7]: C[C@H](NC(=O)CCC(=O)O)C(=O)N[C@@H](C)C(=O)N1CCC[C@H]1C(=O)N[C@@H](CCC(=O)O)C(=O)Nc1ccc([N+](=O)[O-])cc1
Described as above. To be noted: other: Table XIV, 156 Glu / 166 Arg; value in parentheses; synthetic substrate with label as P-1 amino acid.
From the text: as §1, §4, §5

Substrate in data set [8]: C[C@H](NC(=O)CCC(=O)O)C(=O)N[C@@H](C)C(=O)N1CCC[C@H]1C(=O)N[C@@H](CCC(N)=O)C(=O)Nc1ccc([N+](=O)[O-])cc1
The data set is described as above. To be noted: other: Table XIV, 156 Glu / 166 Arg; value in parentheses; synthetic substrate with label as P-1 amino acid.
From the text: as §1, §4, §5

Substrate in data set [9]: C[C@H](NC(=O)CCC(=O)O)C(=O)N[C@@H](C)C(=O)N1CCC[C@H]1C(=O)N[C@@H](CCCCN)C(=O)Nc1ccc([N+](=O)[O-])cc1
Described as above. To be noted: other: Table XIV, 156 Glu / 166 Arg; value in parentheses; synthetic substrate with label as P-1 amino acid.
From the text: as §1, §4, §5

Substrate in data set [10]: CSCC[C@H](NC(=O)[C@@H]1CCCN1C(=O)[C@H](C)NC(=O)[C@H](C)NC(=O)CCC(=O)O)C(=O)Nc1ccc([N+](=O)[O-])cc1
Briefly: Kinetics of p-nitroanilide substrate hydrolysis, Q156. To be noted: other: Table XIV, 156 Gln / 166 Gly; value in parentheses; synthetic substrate with label as P-1 amino acid; 37.0 °C.
From the text: as §1, §2, §3

Substrate in data set [11]: C[C@H](NC(=O)CCC(=O)O)C(=O)N[C@@H](C)C(=O)N1CCC[C@H]1C(=O)N[C@@H](CCC(=O)O)C(=O)Nc1ccc([N+](=O)[O-])cc1
Described as above. To be noted: 37.0 °C.
From the text: as §1, §2, §3

Substrate in data set [12]: C[C@H](NC(=O)CCC(=O)O)C(=O)N[C@@H](C)C(=O)N1CCC[C@H]1C(=O)N[C@@H](CCC(N)=O)C(=O)Nc1ccc([N+](=O)[O-])cc1
The data set is described as above. To be noted: other: Table XIV, 156 Gln / 166 Gly; value in parentheses; synthetic substrate with label as P-1 amino acid; 37.0 °C.
From the text: as §1, §2, §3

Substrate in data set [13]: C[C@H](NC(=O)CCC(=O)O)C(=O)N[C@@H](C)C(=O)N1CCC[C@H]1C(=O)N[C@@H](CCCCN)C(=O)Nc1ccc([N+](=O)[O-])cc1
The description is as above. To be noted: other: Table XIV, 156 Gln / 166 Gly; value in parentheses; synthetic substrate with label as P-1 amino acid; 37.0 °C.
From the text: as §1, §2, §3

Substrate in data set [14]: C[C@H](NC(=O)CCC(=O)O)C(=O)N[C@@H](C)C(=O)N1CCC[C@H]1C(=O)N[C@@H](Cc1ccccc1)C(=O)Nc1ccc([N+](=O)[O-])cc1
Described as above. To be noted: other: Table XIII, enzyme E156; synthetic substrate with label as P-1 residue; 37.0 °C.
From the text: as §1, §2, §3

Where [15] appears, read: other: Table XIII, S156, synthetic substrate with label as P-1 residue.
[16] abbreviates: other: Table XIII, enzyme E156, synthetic substrate with label as P-1 residue.

B1: B. amyloliquefaciens subtilisin variant S156 (Glu156 to Ser) (Bacillus amyloliquefaciens; E263S) (protein)
chain: AQSVPYGVSQIKAPALHSQGYTGSNVKVAVIDSGIDSSHPDLKVAGGASMVPSETNPFQDNNSHGTHVAGTVAALNNSIGVLGVAPSASLYAVKVLGADGSGQYSWIINGIEWAIANNMDVINMSLGGPSGSAALKAAVDKAVASGVVVVAAAGNSGTSGSSSTVGYPGKYPSVIAVGAVDSSNQRASFSSVGPELDVMAPGVSIQSTLPGNKYGAYNGTSMASPHVAGAAALILSKHPNWTNTQVRSSLENTTTKLGDSFYYGKGLINVQAAAQ
notes: at various amino acid residues within the mature form of the subtilisin molecule; made in house; host or cells: Bacillus subtilis BG2036
Consider B1, for which the Km in [1] worked out at 28.2 µM; in data set [2] (setting [15]), 1.8 mM; in data set [2] (other: Table XIV, 156 Ser / 166 Gly, value in parentheses, synthetic substrate with label as P-1 amino acid) it was 1.86 mM; in data set [3] it was 209 µM; in [4] it was 1820 µM; in [5], 47 µM. The kcat in [2] (setting [15]) was determined as 0.40 s-^1; in data set [5], 34.00 s-^1. Besides, the kcat/Km in data set [5] came out at 730000 M⁻¹ s⁻¹.

B2: B. amyloliquefaciens subtilisin variant R166 (Gly166 to Arg) (Bacillus amyloliquefaciens; G273R) (protein)
chain: B1 chain with S156E, G166R
notes: as for B1
As for B2, the Km was found to be 60.3 µM in data set [6], 501 µM in data set [7], 316 µM in [8] and 1580 µM in data set [9].

B3: B. amyloliquefaciens subtilisin variant Q156 (Glu156 to Gln) (Bacillus amyloliquefaciens; E263Q) (protein)
chain: B1 chain with S156Q
notes: as for B1
For B3, the Michaelis constant (Km) in [10] was 24.5 µM; in data set [11] (setting [16]), 3.3 mM; in data set [11] (other: Table XIV, 156 Gln / 166 Gly, value in parentheses, synthetic substrate with label as P-1 amino acid), 3.31 mM; in data set [12], 155 µM; in data set [13], 1510 µM; in [14] it was 45 µM. Moreover, the kcat in data set [11] (setting [16]) stood at 0.90 s-^1; in data set [14], 48.00 s-^1. The kcat/Km in data set [11] (setting [16]) turned out to be 270 M⁻¹ s⁻¹; in data set [14], 1.1e+06 M⁻¹ s⁻¹.
